T1: human B7-H4 expressed on the surface of stably transfected HEK293 cells (human, UniProt Q7Z7D3 25-282)
T1 construct: also called 293T.B7-H4 cells; human B7-H4 arrayed on the surface of a live cell
T1 sequence: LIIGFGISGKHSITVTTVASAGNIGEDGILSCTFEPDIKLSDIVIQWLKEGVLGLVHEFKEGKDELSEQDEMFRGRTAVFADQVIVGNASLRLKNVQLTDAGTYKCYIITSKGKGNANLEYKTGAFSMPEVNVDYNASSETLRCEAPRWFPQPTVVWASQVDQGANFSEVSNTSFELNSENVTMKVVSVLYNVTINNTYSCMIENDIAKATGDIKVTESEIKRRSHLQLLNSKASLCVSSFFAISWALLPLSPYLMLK

T2: B7-DChIg construct (extracellular domain of human DC linked to the hinge and Fc region of a human IgG1) (human, UniProt Q9BQ51 20-220)
T2 construct: extracellular domain; Specificity control antigen in the plate-based assay; not shown: human IgG1 hinge and Fc region
T2 sequence (looked up): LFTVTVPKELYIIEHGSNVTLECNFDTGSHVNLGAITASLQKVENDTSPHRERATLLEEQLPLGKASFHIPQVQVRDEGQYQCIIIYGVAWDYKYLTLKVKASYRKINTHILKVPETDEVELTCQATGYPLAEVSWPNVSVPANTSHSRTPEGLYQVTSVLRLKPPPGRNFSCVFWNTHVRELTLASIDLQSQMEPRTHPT

T3: human B7-H4Ig (B7-H4hIg) (human, UniProt Q7Z7D3 25-259)
T3 construct: also called B7-H4Ig construct; not shown: Ig (Fc) part of the 'hIg' construct
T3 sequence: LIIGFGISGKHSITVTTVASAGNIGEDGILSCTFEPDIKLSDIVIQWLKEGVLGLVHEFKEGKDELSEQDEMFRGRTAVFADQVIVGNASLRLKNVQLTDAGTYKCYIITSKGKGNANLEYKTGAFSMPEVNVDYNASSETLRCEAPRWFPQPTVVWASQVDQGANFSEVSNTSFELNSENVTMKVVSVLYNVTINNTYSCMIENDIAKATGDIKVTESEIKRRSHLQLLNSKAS

T4: Human B7-H4 protein antigen (coated on ELISA plates) (human, UniProt Q7Z7D3 25-259, limits assumed)
T4 construct: also called B7-H4 antigen; human B7-H4 antigen
T4 sequence: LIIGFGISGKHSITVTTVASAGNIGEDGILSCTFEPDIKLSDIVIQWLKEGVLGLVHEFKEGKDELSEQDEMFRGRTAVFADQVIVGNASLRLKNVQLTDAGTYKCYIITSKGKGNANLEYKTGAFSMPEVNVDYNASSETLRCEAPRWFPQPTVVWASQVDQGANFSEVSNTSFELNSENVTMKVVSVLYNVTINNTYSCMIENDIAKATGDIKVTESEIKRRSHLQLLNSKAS


Key:
[1] = biological target: T1, human B7-H4 expressed on the surface of …; experiment: flow cytometry, hybridoma supernatant on HEK293 cells expressing human B7-H4, APC anti-mouse detection
Protocol: Antibodies 2D1, 2E11 and 2H9 were used either un-diluted (Neat), or diluted at 1:3, 1:9 and 1:27, to stain 293T.B7-H4 cells. For binding detection, APC labeled anti-mouse IgG antibody was utilized followed by FACS analysis of APC positive cells. H74 (a commercially available anti-B7-H4 antibody) at 1 μg/mL was used as positive control. Negative control was 1 μg/mL of mIgG1. 293T.B7-H4 cells incubated with APC labeled anti-mouse IgG antibody (DAM APC only), and parent 293 T cells stained with un-diluted 2D1 (Neat [293T]) further served as negative binding controls.
Neat and diluted hybridoma supernatants were then tested for the ability of their antibodies to bind to such cells or to control […] HEK293 cells. After washing, bound antibody was detected with allophycocyanin (APC)-conjugated, anti-mouse antibodies and the mean fluorescent intensity of the cells was determined (FIG. 3).

[2] = biological target: T2, B7-DChIg construct (extracellular …); experiment: plate-based ELISA, hybridoma supernatant on coated B7-DChIg
Protocol: (§1) Serial dilutions were made from H74 (a commercially available anti-B7-H4 antibody), 2D1, 2E11 and 2H9 stock solutions and added to 96-well ELISA plates coated with B7-H4hIg or B7-DChIg. After incubation and wash, horseradish peroxidase (HRP) conjugated anti-mouse IgG antibody was added to the plates. After incubation and wash, 3,3′,5,5′-Tetramethylbenzidine (TMB) substrate was added. The colorimetric development was stopped by H₂SO₄ stop solution and read with a plate reader measuring absorbance at a 450 nm wavelength.
(§2) A plate-based binding assay using the B7-H4hIg construct was employed to capture the elicited antibody; antibodies were then characterized as being either IgG or IgM. As a specificity control, antibodies were also subjected to capture with a B7-DChIg construct (comprising the extracellular domain (ECD) of human DC linked to the hinge and Fc region of a human IgG1) (“B7-DChIg”) and the extent of IgG capable of binding was measured.

human B7-H4Ig (B7-H4hIg) = biological target: T3, human B7-H4Ig (B7-H4hIg); experiment: plate-based ELISA, hybridoma supernatant on coated B7-H4hIg
Protocol: as §1, §2

[3] = biological target: T4, Human B7-H4 protein antigen (coated on …); experiment: ELISA, conditioned medium on coated human B7-H4 antigen, anti-Fc-HRP/TMB
[4] = biological target: T4, Human B7-H4 protein antigen (coated on …); experiment: ELISA, conditioned medium on coated human B7-H4 antigen, anti-Fc-HRP, OD650
Protocol: Human B7-H4 protein antigen and control antigen were coated onto 96-well ELISA plates. The plates are then blocked with 3% BSA, and washed in PBS.
The conditioned media (4 days post transfection) were then tested for antigen binding in the 96-well ELISA. Anti-Fc-HRP was used as the detecting antibody. Plates were washed with PBS, and TMB (3,3′,5,5′-tetramethylbenzidine) was added for HRP color reaction. Once color developed, the OD₆₅₀ in each well was determined on an absorbance microplate reader.

Row | Binder | binding result [2] | OD650 [3] [OD650] | also measured
1 | anti-human B7-H4 antibody 2E11 (murine hybridoma clone) (antibody, IgG1, V domains shown, Mouse hybridoma antibody tested as hybridoma supernatant; IgG1-producing clone; also called Anti-Human B7-H4 Clone 2E11) VH: EVKLVESEGGLVQPGSSMKLSCTASGFKFTDYYMAWVRQVPEKGLEWVANINYDGSSTYYLDSLKSRFIISRDNAKNILYLQMNSLKSEDTATYYCARKGYFDYWGQGTTLTVSS VL: DIVMSQSPSSLAVSVGEKVTVSCKSSQSLLYSTNQRTYLAWFQQKPGQSPKLLIYWASTRESGVPDRFTGSGSGTDFTLTISSVKAEDLAVYYCQQYYNYPLTFGTGTKLELK | no binding | – | binding result [1]: binds; binding result (human B7-H4Ig (B7-H4hIg)): binds
2 | recombinant chimeric anti-B7-H4 antibody 2D1 (2D1 heavy chain / 2D1 light chain, human IgG4 S228P) (antibody, V domains shown, tested as CHO conditioned medium; also called 2D1 HC + 2D1 LC) VH: EVQLVESGGGLVKPGGSLKLSCAASGFTFNSHGMSWVRQTPEKRLDWVATISDGGTYTYYPVNVKGRFTISRDNAKNNLYLQMSHLKSEDTAMYYCARDGGGGAYWGQGTLVTVSA VL: DVVMTQTPLSLPVSLGDQASISCRSSHSLVHSNGNTYLHWYLQKPGQSPNLLIYIVSNRFSGVPDRFSGSGSGTDFTLKISRVEAEDLGVYFCSQSTHVPPTFGAGTKLELKR | – | 1.12 | –
3 | recombinant antibody of 2D1 heavy chain and 2H9 light chain (human IgG4 S228P) (antibody, V domains shown, Mixed-chain combination tested as CHO conditioned medium; also called 2D1 HC + 2H9 LC) VH: EVQLVESGGGLVKPGGSLKLSCAASGFTFNSHGMSWVRQTPEKRLDWVATISDGGTYTYYPVNVKGRFTISRDNAKNNLYLQMSHLKSEDTAMYYCARDGGGGAYWGQGTLVTVSA VL: DIVLTQSPASLAVSLGQRATISCRASESIDNYGISFMHWYQQKPGQPPKLLIYRASNLESGIPARFSGSGSRTDFTLTINPVETDDVATYFCQQSDEGRTFGGGTKLEIKR | – | 0.06 | binding result [4]: no binding
4 | recombinant antibody of 2H9 heavy chain and 2D1 light chain (human IgG4 S228P) (antibody, V domains shown, Mixed-chain combination tested as CHO conditioned medium; also called 2H9 HC + 2D1 LC) VH: EVQLVESGGNLVKPGGSLKLSCAASGFTFSNSAMSWVRQTPEKRLEWVATISDGGRYTYYPDNVKGRFTISRDNAKNNLYLQMSHLKSEDTALYYCARDRPHWYFDVWGTGATVTVSS VL: DVVMTQTPLSLPVSLGDQASISCRSSHSLVHSNGNTYLHWYLQKPGQSPNLLIYIVSNRFSGVPDRFSGSGSGTDFTLKISRVEAEDLGVYFCSQSTHVPPTFGAGTKLELKR | – | 0.02 | binding result [4]: no binding
5 | recombinant chimeric anti-B7-H4 antibody 2H9 (2H9 heavy chain / 2H9 light chain, human IgG4 S228P) (antibody, V domains shown, tested as CHO conditioned medium; also called 2H9 HC + 2H9 LC) VH: EVQLVESGGNLVKPGGSLKLSCAASGFTFSNSAMSWVRQTPEKRLEWVATISDGGRYTYYPDNVKGRFTISRDNAKNNLYLQMSHLKSEDTALYYCARDRPHWYFDVWGTGATVTVSS VL: DIVLTQSPASLAVSLGQRATISCRASESIDNYGISFMHWYQQKPGQPPKLLIYRASNLESGIPARFSGSGSRTDFTLTINPVETDDVATYFCQQSDEGRTFGGGTKLEIKR | – | 1.15 | –
6 | anti-human B7-H4 antibody 2D1 (murine hybridoma clone) (antibody, IgG2, V domains shown, Mouse hybridoma antibody tested as hybridoma supernatant; also called Anti-Human B7-H4 Clone 2D1) VH: EVQLVESGGGLVKPGGSLKLSCAASGFTFNSHGMSWVRQTPEKRLDWVATISDGGTYTYYPVNVKGRFTISRDNAKNNLYLQMSHLKSEDTAMYYCARDGGGGAYWGQGTLVTVSA VL: DVVMTQTPLSLPVSLGDQASISCRSSHSLVHSNGNTYLHWYLQKPGQSPNLLIYIVSNRFSGVPDRFSGSGSGTDFTLKISRVEAEDLGVYFCSQSTHVPPTFGAGTKLELK | no binding | – | –
7 | anti-human B7-H4 antibody 2H9 (murine hybridoma clone) (antibody, IgG1, V domains shown, Mouse hybridoma antibody tested as hybridoma supernatant; IgG1-producing clone; also called Anti-Human B7-H4 Clone 2H9) VH: EVQLVESGGNLVKPGGSLKLSCAASGFTFSNSAMSWVRQTPEKRLEWVATISDGGRYTYYPDNVKGRFTISRDNAKNNLYLQMSHLKSEDTALYYCARDRPHWYFDVWGTGATVTVSS VL: DIVLTQSPASLAVSLGQRATISCRASESIDNYGISFMHWYQQKPGQPPKLLIYRASNLESGIPARFSGSGSRTDFTLTINPVETDDVATYFCQQSDEGRTFGGGTKLEIK | no binding | – | –
